Measurements from patent publication US10444224B2, “Method for RNA detection and quantification” (Cornell University, priority 2011, dated 2019).
Entries after “also recorded” stand apart in the source; their conditions may differ.

Experiments:
[1] = test system: endogenous SAM levels in living E. coli cells; experiment: Live cell imaging of SAM accumulation with the SAM sensor; format: cell-based; settings: 50 μg/ml methionine plus inhibitor (25 μM adenosine periodate or 2.5 μM MT-DADMe-ImmA)
Description: Expression of the SAM aptamer and intracellular imaging was performed as described above for the ADP sensor: BL21-A Star E. coli cells (Invitrogen) were transformed with 40 ng of plasmid DNA expressing the tRNA-sensor chimeras in pET28c under the control of a T7 promoter. Cells were plated, grown overnight and single colonies were picked for inoculation in LB-Kan. At OD600=0.4, 1 mM of IPTG was added to the culture and shaking was continued at 37° C. for more 2 hours. 100 μL of culture was then removed, spun down to pellet the culture, and resuspended in 2 mL of pH 6.0 M9 minimal media. A 200 μl aliquot of resuspended culture was then plated on PLL-coated 24-well glass-bottom dishes (MatTek) and incubated for 45 minutes at 37° C. Adherent cells were washed twice and then incubated with 200 μM DFHBI in pH 6.0 M9 minimal media for 2 hours at 37° C. Cells were then treated with methionine alone or methionine with inhibitors by adding 2 μl of a 100× stock of the compound to a final concentration of 50 μg/ml for L-methionine, 25 μM for adenosine periodate, and 2.5 μM for MT-DADMe-ImmA. Live fluorescence images were taken with a CoolSnap HQ2 CCD camera through a 60× oil objective mounted on a Nikon TE2000 microscope and analyzed with the NIS-Elements software. The filter set used was a sputter coated filter cube with excitation filter 470/40, dichroic mirror 495 (long pass) and emission filter 525/50 (Chroma Technology).
Cells transformed with SAM sensors were grown overnight in LB-Kan. Cultures were then diluted to OD600=0.1 in 200 mL LB-Kan and grown to OD600=0.4. Cells were then induced for 2 hours with 1 mM IPTG at 37° C. with constant shaking. The entire culture was centrifuged for 5 min at 1,000×g, pellets were resuspended and washed once with M9 media and then resuspended in […] of M9 media containing 200 μM DFHBI and divided into two samples. Methionine (50 μg/ml) or vehicle was then added to either sample and cultures were incubated between 32-37° C. 25 ml aliquots were removed from methionine- and vehicle-treated sample at each time point, centrifuged for 5 min at 1,000×g, and flash frozen in liquid nitrogen. Cells were thawed on ice and lysed by resuspending the pellet in 300 μl of cold 4% perchloric acid. Insoluble material was then pelleted by spinning at 1,000×g for 5 min and the supernatant was transferred to a dialysis spin column with a 10,000 molecular weight cut off (Amicon) and spun at 10,000×g for 10 min at 4° C. A portion of the flow through (50 μl) was then injected on a Zorbax C8 column (Agilent) on an Agilent 1100 HPLC. Samples were loaded and eluted for 15 min with an aqueous buffer containing 3.6% acetonitrile, 40 mM ammonium phosphate, and 5 mM sodium 1-heptanesulfonate which was brought to pH 5.0 with hydrochloric acid. After each sample was eluted, the column was washed with a gradient of 3.6-25% acetonitrile for 30 min prior to the next samples being injected. SAM standards were used to calibrate SAM levels measured using this assay.
Population analysis was carried out using NIS-Elements software. Individual cells in a captured field were manually traced as Region of Interests (ROIs) and tracked through the different time points of image capture. Fluorescence intensity was then calculated by dividing the total fluorescence by the area for each ROI, which gives the mean intensity per unit area. Fold increase in fluorescence over time is calculated as the ratio of mean intensity at a desired time point and at time zero. Values in fold increase in fluorescence over time are plotted as frequency distributions or further used in statistical analyses.

[2] = Spinach-based RNA sensor fluorescence in response to GTP; format: biochemical
Description: Dose-response curves for each sensor in response to the target metabolite were determined by measuring the increase in fluorescence as a function of increasing target concentration in the presence of a fixed concentration of RNA sensor (10-50 nM) and a fixed concentration of fluorophore (10 μM). Curves were determined using a nonlinear regression analysis in Prism software and matched by least squares fitting to a standard dose-response model for 1:1 complexation.
The optimal sensors were chosen based on their low fluorescence in the absence of metabolite and the relative increase in fluorescence upon binding to the metabolite.

[3] = Emission and excitation of aptamer-MFHO complexes; format: physicochemical; settings: aptamer with MFHO
[4] = Relative fluorescence of Spinach derivatives compared to Spinach; format: biochemical; settings: same concentration of DFHBI in all samples
From the text: Further modifications to Spinach were made in the same manner as described in Example 3, supra. These included modifications to the central loop, the stem formed between 5′ and 3′ ends, as well as stem-loops 1, 2, and 3. FIG. 17 illustrates the RNA sequences and secondary structures of Spinach (SEQ ID NO: 10), and five derivatives thereof, which are designated Spinach-2 (SEQ ID NO: 12), Spinach-4 (SEQ ID NO: 13), Spinach-6 (SEQ ID NO: 14), Spinach-7 (SEQ ID NO: 15), and Spinach-13 (SEQ ID NO: 11). RNA structure is shown as predicted by Mfold web-based software (Zuker, “Mfold Web Server for Nucleic Acid Folding and Hybridization Prediction,” Nucl. Acids Res. 31(13): 3406-3415 (2003), which is hereby incorporated by reference in its entirety). Substitutions present in the derivatives, relative to Spinach, are shown with a box formed around the base.
FIG. 18 is a graph illustrating the relative fluorescence of the Spinach derivatives compared to Spinach. In all samples shown, the same concentration of DFHBI, the Spinach-binding fluorophore, was included. […] In contrast, modifications to the 5′ and 3′ stem formation, the central loop, and stem-loop 2 were either tolerated or led to much improved fluorescence.

[5] = Emission and excitation of aptamer-DFHO complexes; format: physicochemical; settings: aptamer with DFHO
[6] = Emission and excitation of aptamer-DFAME complexes; format: physicochemical; settings: aptamer with DFAME
[7] = 0.1 μM RNA, 10 μM DFHBI, 1 mM competing molecule

CSC[C@H]1CN(Cc2c[nH]c3c(N)ncnc23)C[C@@H]1O [MT-DADMe-ImmA, MT-DADMe-Immucillin-A]
effect on average SAM levels / accumulation versus vehicle [1]: large decrease in the average accumulation of SAM
effect on inter-cell variability in SAM levels versus vehicle [1]: retained considerable variability in total SAM levels
effect on average SAM levels / accumulation versus vehicle ([1]; listed as Mt-DADMe-ImmA): substantial reduction in average SAM accumulation levels; also recorded: much greater reduction in average SAM accumulation levels
effect on inter-cell variability in SAM levels versus vehicle ([1]; listed as Mt-DADMe-ImmA): higher variability in SAM levels; also recorded: increased the variability in SAM levels

B1: GTP sensor: Spinach-based turn-on RNA sensor for GTP (nucleic acid)
chain: GACGCGACUGAAUGAAAUGGUGAAGGACGGGUCCAGCAGAAGAGCACGUAUACGCAAGCUUGUUGAGUAGAGUGUGAGCUCCGUAACUAGUCGCGUC
modifications: listed as RNA, chemistry not given here
increase in fluorescence in the presence of GTP ([2]; 0.1 μM RNA, 10 μM DFHBI, 1 mM GTP, versus no GTP): 15 fold
molecular discrimination: ATP [2, 7]: Only baseline fluorescence
molecular discrimination: GMP [2, 7]: exhibits fluorescence, although to a lesser extent; also recorded: moderate preference for GTP over GMP
molecular discrimination: cGMP and guanosine [2, 7]: minimal fluorescence; also recorded: tenfold less fluorescence
EC50 ([2]; predicted by curve fitting, read-out: half-maximal fluorescence (EC50), GTP): 7.7 mM

B2: SEQ ID NO: 56: RNA aptamer listed for fluorophore MFHO (nucleic acid)
chain: GGGAGACGCAACUGAAUGAAUGAGUAUGAUGCACGGUUAAAAUCCACUGCUUCGGCAGGAGUUGCGUUAGGAGGGUCGGGAGUCUCCGUAACUAGUCGCGUCAC
modifications: listed as RNA, chemistry not given here
Em [3]: Em = 570 nm
Ex [3]: Ex = 550 nm

B3: Spinach-13: derivative of Spinach (nucleic acid)
chain: GACGCGACCUAUGAAAUGGUGAAGGGACGGGUCCCAGCGGCUGCUUCGGCAGCCGCUGUUGAGUAGAGUGUGAGCUCCGUAACUGGUCGCGUC
modifications: listed as RNA, chemistry not given here
relative fluorescence compared to Spinach [4]: greatly reduced fluorescence

B4: SEQ ID NO: 53: RNA aptamer listed for fluorophore DFHO (nucleic acid)
chain: GGGAGACGCAACUGAAUGAAAGACCUGACGAGGGUGAAGCGGUUGUCUGCUUCGGCAGCAUUGAAAGGGUGGGGUGUAGGAUGGUCCGUAACUAGUCGCGUCAC
modifications: listed as RNA, chemistry not given here
Em [5]: Em = 560 nm
Ex [5]: Ex = 520 nm

B5: SEQ ID NO: 57: RNA aptamer listed for fluorophore DFAME (nucleic acid)
chain: B4 chain
modifications: listed as RNA, further chemistry not given here
Em [6]: Em = 570 nm
Ex [6]: Ex = 620 nm

B6: SEQ ID NO: 51: RNA aptamer listed for fluorophore DFHO (nucleic acid)
chain: GGGAGACGCAACUGAAUGAAGUUGGCCCAUGAUAGAAAGCAGGGUGCUGCUUCGGCAGUUGUCGGAGGGUGGGGGGAUUGACUAUCCGUAACUAGUCGCGUCAC
modifications: listed as RNA, chemistry not given here
Em [5]: Em = 550 nm
Ex [5]: Ex = 480 nm

B7: SEQ ID NO: 58: RNA aptamer listed for fluorophore DFAME (nucleic acid)
chain: GGGAGACGCAACUGAAUGAAGCCUCCGUGCGACAUCAUGCGCGCGACUGCUUCGGCAGAGGUGGGUGGUGUGGAGGAGUAUCUGUCCGUAACUAGUCGCGUCAC
modifications: listed as RNA, further chemistry not given here
Em [6]: Em = 610 nm
Ex [6]: Ex = 510 nm

B8: Spinach-4: derivative of Spinach (nucleic acid)
chain: GACGCGACCGAAUGAAAUGGUGAAGGACGGGUCCAGCUGCGGCUGCUUCGGCAGCCGCAGCUUGUUGAGUAGAGUGUGAGCUCCGUAACUGGUCGCGUC
modifications: listed as RNA, chemistry not given here
relative fluorescence compared to Spinach [4]: enhanced fluorescence

B9: SEQ ID NO: 54: RNA aptamer listed for fluorophore DFHO (nucleic acid)
chain: GGGAGACGCAACUGAAUGAAGCGAGGAAGGAGGUCUGAGGAGGUCACUGCUUCGACAGUGGGGCGUUUUCCCUGGGGGUGUUGAUCCGUAACUAGUCGCGUCAC
modifications: listed as RNA, chemistry not given here
Em [5]: Em = 545 nm
Ex [5]: Ex = 500 nm

B10: SEQ ID NO: 55: RNA aptamer listed for fluorophore MFHO (nucleic acid)
chain: B9 chain
modifications: listed as RNA, chemistry not given here
Em [3]: Em = 430 nm
Ex [3]: Ex = 580 nm

B11: Spinach-6: derivative of Spinach (nucleic acid)
chain: GACGCGACCGAAUGAAAUGGUGAAGGACGGGUCCAGGUGUGGCUGCUUCGGCAGUGCAGCUUGUUGCGUCGAGUGUGAGCUCGACGUAACUGGUCGCGUC
modifications: listed as RNA, chemistry not given here
relative fluorescence compared to Spinach [4]: greatly reduced fluorescence

B12: Spinach-2: derivative of Spinach (nucleic acid)
chain: GACGCGACCGAAUGAAAUGGUGAAGGACGGGUCCAGGUGUGGCUGCUUCGGCAGUGCAGCUUGUUGAGUAGAGUGUGAGCUCCGUAACUGGUCGCGUC
modifications: listed as RNA, chemistry not given here
relative fluorescence compared to Spinach [4]: comparable fluorescence

B13: SEQ ID NO: 52: RNA aptamer listed for fluorophore DFHO (nucleic acid)
chain: GGGCGACUCACUAUAGGGAGACGCAACUGAAUGAAGCGAAGAAGGAGGUCUGAGGAGGUCACUGCUUCGGCAGUGGGGCGUUUUCCCUGGGGGUGUUGAUCCGUAACUAGUCGCGUCAC
modifications: listed as RNA, chemistry not given here
Em [5]: Em = 540 nm
Ex [5]: Ex = 490 nm

B14: Spinach-7: derivative of Spinach (nucleic acid)
chain: GACGCGACCGAAUGAAAUGGUGAAGGACGGGUCCAGCCGGCUGCUUCGGCAGCCGGCUUGUUGAGUAGAGUGUGAGCUCCGUAACUGGUCGCGUC
modifications: listed as RNA, chemistry not given here
relative fluorescence compared to Spinach [4]: enhanced fluorescence
